Target: the molecule itself
Assay: fluorescence correlation spectroscopy (FCS); protein adsorbed on supported lipid bilayers with 96% DOPC and 4% PIP3; two-dimensional diffusion rate measured against surface density; fit to a 2D diffusion model; imaging buffer HBSS with 0.01% w/v beta-casein, with scavenging mixture

B1: BTK PH–TH module (residues 1–171), wild type, with C-terminal mNeonGreen (domain or fragment, human, UniProt Q06187 1-171, looked up)
chain: MAAVILESIFLKRSQQKKKTSPLNFKKRLFLLTVHKLSYYEYDFERGRRGSKKGSIDVEKITCVETVVPEKNPPPERQIPRRGEESSEMEQISIIERFPYPFQVVYDEGPLYVFSPTEELRKRWIHQLKNVIRYNSDLVQKYHPCFWIDGQYLCCSQTAKNAMGCQILENR
notes: Bruton's tyrosine kinase (BTK), human, pleckstrin-homology and tec-homology domains (PH–TH module), residues 1–171; ZnCl2 was added during expression; also called PH–TH^WT; source: E. coli BL21-DE3, purified (HisTrap, SUMO protease cleavage, second HisTrap, Superdex 75); not shown: His6, N-terminal, cleaved; SUMO, N-terminal, cleaved; mNeonGreen, C-terminal, kept
  binding result: binds

From paper doi:10.1101/2023.10.05.561114, “Conditional Requirement for Dimerization of the Membrane-Binding Module of BTK” (bioRxiv, 2023)
